{
  "source": "paper PMC6150732",
  "biological_target": "encapsulin from Brevibacterium linens (Brevibacterium linens)",
  "assay": "cryo-EM structure",
  "data": [
    {"substance": "encapsulin from Brevibacterium linens (natural protein)", "values": [
      {"measurement": "stoichiometry N (subunits per particle)", "value": 60}
    ]},
    {"substance": "dye-decolorizing peroxidase (DyP) from Brevibacterium linens (enzyme)", "values": [
      {"measurement": "stoichiometry N (DyP hexamer per encapsulin particle)", "value": 1}
    ]}
  ]
}
